In the supplement of paper PMC9233669:
This sample holds only a part of the variants without activity.

What was measured:
biotinyl-Phe-oxazolone = assay: self-aminoacylation, catalytic enhancement (BFO) (fold over background); higher = more active; k-Seq, kA / k0A0; sequences stand for … in GGGAAUGGAUCCACAUCUACGAAUUC…UUCACUGCAGACUUGACGAAGCUG
Method in brief: (§1)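 Working in 50 μL HEPES/NaCl/KCl/MgCl2/CaCl2 buffer with 5% acetonitrile at pH 6.9–7.0, mutagenized RNA pools (0.43 μM; 21-nt variable region) were reacted with 2–1250 μM of each biotinyl-aminoacyl-oxazolone for 90 minutes at room temperature. Streptavidin capture followed, with quantification by triplicate qPCR and Illumina sequencing. Catalytic enhancement is reported as median kA over the uncatalyzed rate, the low-activity peak of a bimodal Gaussian fit to the data.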

biotinyl-Ile-oxazolone = assay: self-aminoacylation, catalytic enhancement (BIO) (fold over background); higher = more active; k-Seq, kA / k0A0; sequences stand for … in GGGAAUGGAUCCACAUCUACGAAUUC…UUCACUGCAGACUUGACGAAGCUG
Method in brief: as §1

biotinyl-Met-oxazolone = assay: self-aminoacylation, catalytic enhancement (BMO) (fold over background); higher = more active; k-Seq, kA / k0A0; sequences stand for … in GGGAAUGGAUCCACAUCUACGAAUUC…UUCACUGCAGACUUGACGAAGCUG
Method in brief: as §1

biotinyl-Val-oxazolone = assay: self-aminoacylation, catalytic enhancement (BVO) (fold over background); higher = more active; k-Seq, kA / k0A0; sequences stand for … in GGGAAUGGAUCCACAUCUACGAAUUC…UUCACUGCAGACUUGACGAAGCUG
Method in brief: as §1

biotinyl-Leu-oxazolone = assay: self-aminoacylation, catalytic enhancement (BLO) (fold over background); higher = more active; k-Seq, kA / k0A0; sequences stand for … in GGGAAUGGAUCCACAUCUACGAAUUC…UUCACUGCAGACUUGACGAAGCUG
Method in brief: as §1

biotinyl-Trp-oxazolone = assay: self-aminoacylation, catalytic enhancement (BWO) (fold over background); higher = more active; k-Seq, kA / k0A0; sequences stand for … in GGGAAUGGAUCCACAUCUACGAAUUC…UUCACUGCAGACUUGACGAAGCUG
Method in brief: as §1

| Sequence | self-aminoacylation (biotinyl-Phe-oxazolone) | self-aminoacylation (biotinyl-Ile-oxazolone) | self-aminoacylation (biotinyl-Met-oxazolone) | self-aminoacylation (biotinyl-Val-oxazolone) | self-aminoacylation (biotinyl-Leu-oxazolone) | self-aminoacylation (biotinyl-Trp-oxazolone) |
| --- | --- | --- | --- | --- | --- | --- |
| AUUCACCUAGGUCAUCGGCUC [Fam2.2 aminoacylation ribozyme variant] | 5.2 | 2.5 | 2.14 | 2.22 | 2.45 | 2.47 |
| AUUCACCUAGGUCAUCGUGUG [Fam2.2 aminoacylation ribozyme variant] | 2.56 | 0.867 | 0.951 | 0.932 | 1.07 | 0.654 |
| AUUACCUUGGACAUCGAGUGA [Fam2.1 aminoacylation ribozyme variant] | 26.3 | 3.16 | 5.7 | 2.9 | 6.08 | 7.94 |
| CUAAUUCAAACAAUCGGGCUG [Fam1A.1 aminoacylation ribozyme variant] | 1.49 | 0.805 | 0.87 | 0.852 | 1.02 | 1.14 |
| AUUCACCUUGGUCAGCGGGUG [Fam2.2 aminoacylation ribozyme variant] | 25.6 | 2.71 | 3.99 | 3.16 | 5.32 | 3.71 |
| AUUCACCUACGUCAUCGGGUC [Fam2.2 aminoacylation ribozyme variant] | 4.31 | 1.17 | 1.25 | 1.21 | 1.36 | 0.963 |
| AUUCACCUAGGACAUCUGGUG [Fam2.2 aminoacylation ribozyme variant] | 8.71 | 2.02 | 2.13 | 1.72 | 2.13 | 2.13 |
| AUUACCCUGAUCAUCGGGUGA [Fam2.1 aminoacylation ribozyme variant] | 67.3 | 5.24 | 9.51 | 5.38 | 9.62 | 10.7 |
| UCACACUUCAAUCAAUCGGUC [Fam1B.1 aminoacylation ribozyme variant] | 35.5 | 1.11 | 1.12 | 1.08 | 1.49 | 21.3 |
| AUUCACCUAAGUCAUCGGCUG [Fam2.2 aminoacylation ribozyme variant] | 5.86 | 1.52 | 1.55 | 1.58 | 1.63 | 0.999 |
| AUUAACCCAGGUCAUCGGGUG [Fam2.2 aminoacylation ribozyme variant] | 36.2 | 4.38 | 6.61 | 3.58 | 8.17 | 5.58 |
| CCAAACUUCUAGCAAUCGGUC [Fam1B.1 aminoacylation ribozyme variant] | 1.01 | 0.961 | 0.839 | 0.952 | 0.733 | 0.667 |
| AAGUCUGCUAAUAGUCGAAAG [Fam3.1 aminoacylation ribozyme variant] | 16.8 | 1.1 | 1.84 | 1.04 | 1.52 | 6.05 |
| AUUGACCUGGUCAUCGAGUGA [Fam2.1 aminoacylation ribozyme variant] | 8.3 | 3.66 | 6.92 | 4.1 | 7.86 | 9.68 |
| AAGAUUGCUAAGAGUCGCAAG [Fam3.1 aminoacylation ribozyme variant] | 1.73 | 1.41 | 1.41 | 1.29 | 1.3 | 2.56 |
| AAGCCUGCUAAUAGUCGCAAG [Fam3.1 aminoacylation ribozyme variant] | 37.3 | 1.86 | 1.61 | 1.77 | 1.64 | 11.1 |
| CCACACUUUGAGCAAUCGGUC [Fam1B.1 aminoacylation ribozyme variant] | 0.83 | 1.05 | 0.858 | 1.06 | 0.96 | 0.721 |
| CGACUUCAAACAAUGGGUCUG [Fam1A.1 aminoacylation ribozyme variant] | 0.777 | 1.2 | 1.2 | 1.09 | 0.941 | 0.968 |
| UUACUUCAAACCAUCGGUCUG [Fam1A.1 aminoacylation ribozyme variant] | 1.23 | 1.09 | 1.06 | 1.03 | 0.847 | 1.02 |
| AUUCACCUAGGAAAUCGGGUG [Fam2.2 aminoacylation ribozyme variant] | 53 | 4.03 | 6.99 | 3.5 | 8.95 | 5.87 |
| AUUCACCUAGAUCGUCGGGUG [Fam2.2 aminoacylation ribozyme variant] | 3.8 | 1.14 | 1.06 | 1.38 | 1.3 | 0.967 |
| AUUCAUCUAGGUCAUUGGGUG [Fam2.2 aminoacylation ribozyme variant] | 26.7 | 2.67 | 4.21 | 2.77 | 4.98 | 4.24 |
| CCUCACUUGAAGCAAUCGGUC [Fam1B.1 aminoacylation ribozyme variant] | 0.809 | 0.636 | 0.679 | 0.678 | 0.607 | 0.664 |
| GCACACUUCAAGUAAUCGGUC [Fam1B.1 aminoacylation ribozyme variant] | 8.6 | 1.89 | 1.88 | 1.7 | 1.77 | 8.15 |
| CCACACUAUAAGCAAUCGGUC [Fam1B.1 aminoacylation ribozyme variant] | 0.92 | 0.789 | 0.567 | 0.793 | 0.59 | 0.386 |
| CCACACUUAAAGGAAUCGGUC [Fam1B.1 aminoacylation ribozyme variant] | 0.88 | 1.12 | 0.953 | 1.01 | 0.906 | 0.763 |

| Sequence | self-aminoacylation (biotinyl-Phe-oxazolone) | self-aminoacylation (biotinyl-Ile-oxazolone) | self-aminoacylation (biotinyl-Met-oxazolone) | self-aminoacylation (biotinyl-Val-oxazolone) | self-aminoacylation (biotinyl-Leu-oxazolone) | self-aminoacylation (biotinyl-Trp-oxazolone) |
| --- | --- | --- | --- | --- | --- | --- |
| CGACACUUCAAGCAAUCUGUC [Fam1B.1 aminoacylation ribozyme variant] | 0.656 | 0.554 | 0.52 | 0.51 | 0.411 | 0.416 |
| AAGGUUGCUAAUAGUGGCAAG [Fam3.1 aminoacylation ribozyme variant] | 0.712 | 0.698 | 0.863 | 0.79 | 0.977 | 0.638 |
| AUUCACCAAGGUCAACGGGUG [Fam2.2 aminoacylation ribozyme variant] | 42.5 | 3.52 | 6.3 | 3.1 | 8.07 | 6.16 |
| AAGUUUGCUGAUAGUCGCGAG [Fam3.1 aminoacylation ribozyme variant] | 6.95 | 1.75 | 1.72 | 1.61 | 2.43 | 1.81 |
| ACGUUUGCUAACAGUCGCAAG [Fam3.1 aminoacylation ribozyme variant] | 4.28 | 1.5 | 1.53 | 1.29 | 1.97 | 1.94 |
| CCACACUUCAAACAAUCGUUC [Fam1B.1 aminoacylation ribozyme variant] | 1.55 | 0.759 | 0.697 | 0.822 | 0.623 | 0.778 |
| AAGAUUGCGAAUAGUCGCAAG [Fam3.1 aminoacylation ribozyme variant] | 1.72 | 1.47 | 1.17 | 1.71 | 1.33 | 2.46 |
| AUUGACCUAGUUCAUCGGGUG [Fam2.2 aminoacylation ribozyme variant] | 18.6 | 2.62 | 3.19 | 2.59 | 3.62 | 4.08 |
| AAGUUUGCUAAUAGUUGCAUG [Fam3.1 aminoacylation ribozyme variant] | 1.14 | 0.96 | 0.831 | 0.934 | 1.14 | 0.685 |
| UCACACUUCAAGCAAUCGGAC [Fam1B.1 aminoacylation ribozyme variant] | 1.56 | 0.844 | 0.732 | 0.821 | 0.598 | 0.994 |
| CCGCAAUUCAAGCAAUCGGUC [Fam1B.1 aminoacylation ribozyme variant] | 18.7 | 1.94 | 1.73 | 2.12 | 1.9 | 14.2 |
| CUACUUCGAACAAUAGGUCUG [Fam1A.1 aminoacylation ribozyme variant] | 0.503 | 0.547 | 0.471 | 0.745 | 0.461 | 0.421 |
| AACUUUGCUAAUAGCCGCAAG [Fam3.1 aminoacylation ribozyme variant] | 2.77 | 2.25 | 2.28 | 1.93 | 2.23 | 2.14 |
| AUCACUCUGGUCAUCGAGUGA [Fam2.1 aminoacylation ribozyme variant] | 13.9 | 3.2 | 3.12 | 2.9 | 3.85 | 4.03 |
| CUUCACCUAUGUCAUCGGGUG [Fam2.2 aminoacylation ribozyme variant] | 17 | 2.35 | 3.64 | 2.83 | 4.68 | 4.46 |
| AUCCACCUUGGUCAUCGGGUG [Fam2.2 aminoacylation ribozyme variant] | 45.5 | 4.12 | 6.42 | 5.35 | 7.29 | 6.99 |
| CUUACCCUGGUCAACGAGUGA [Fam2.1 aminoacylation ribozyme variant] | 15.8 | 2.56 | 5.06 | 3.29 | 5.08 | 6.73 |
| AUUCAACUAGGUUAUCGGGUG [Fam2.2 aminoacylation ribozyme variant] | 22.1 | 2.21 | 3.29 | 2.45 | 3.61 | 3.46 |
| AUUCACCAAGGUCAUCGGUUG [Fam2.2 aminoacylation ribozyme variant] | 9.05 | 1.42 | 1.55 | 1.39 | 1.72 | 1.69 |
| GCACACUUAAAGCAAUCGGUC [Fam1B.1 aminoacylation ribozyme variant] | 1.1 | 1.25 | 1.06 | 1.18 | 1.15 | 1.49 |
| ACGUUUGCGAAUAGUCGCAAG [Fam3.1 aminoacylation ribozyme variant] | 3.56 | 1.97 | 1.58 | 1.45 | 1.85 | 2.17 |
| AUUACCCUGGUUCUCGAGUGA [Fam2.1 aminoacylation ribozyme variant] | 8.08 | 1.78 | 2.08 | 2.2 | 3.1 | 3.34 |
| AUUCACCUAUGUCACCGGGUG [Fam2.2 aminoacylation ribozyme variant] | 19 | 2.34 | 3.22 | 2.27 | 4.89 | 3.43 |
| AUUCACCUAGGUCUACGGGUG [Fam2.2 aminoacylation ribozyme variant] | 27.6 | 3.16 | 4.62 | 3.11 | 4.92 | 4.07 |
| AAGUGUACUAAUAGUCGCAAG [Fam3.1 aminoacylation ribozyme variant] | 1.74 | 1.4 | 1.17 | 1.51 | 1.2 | 1.2 |
